In PMC3893156 one finds Km data, which are given here for two proteins.

Substrate in data set [1]: O=P(O)(O)O[C@H]1O[C@H](CO)[C@@H](O)[C@H](O)[C@@H]1O
The experiment in a line: Michaelis-Menten kinetics of purified enzyme. In kind it is biochemical, Homo sapiens. The following applies: Mg2+; Man-1,6-P2 activator.

Substrate in data set [2]: O=P(O)(O)O[C@H]1O[C@H](CO)[C@@H](O)[C@H](O)[C@H]1O
The experiment in a line: Michaelis-Menten kinetics of purified enzyme. In kind it is biochemical, Homo sapiens. Particulars: Mg2+; Glc-1,6-P2 activator.

Substitutions are numbered along the chain they refer to. Names and notes keep the numbering of the source.

B1: Phosphomannomutase 2 (wt-PMM2) (Homo sapiens) (protein)
chain: MAAPGPALCLFDVDGTLTAPRQKITKEMDDFLQKLRQKIKIGVVGGSDFEKVQEQLGNDVVEKYDYVFPENGLVAYKDGKLLCRQNIQSHLGEALIQDLINYCLSYIAKIKLPKKRGTFIEFRNGMLNVSPIGRSCSQEERIEFYELDKKENIRQKFVADLRKEFAGKGLTFSIGGQISFDVFPDGWDKRYCLRHVENDGYKTIYFFGDKTMPGGNDHEIFTDPRTMGYSVTAPEDTRRICELLFS
In the case of B1, the Michaelis-Menten constant (Km) (usually the concentration of substrate that gives half-maximal velocity) is 16.0 ± 1.5 µM in data set [1] and 8.2 ± 1.4 µM in data set [2].

B2: Phosphomannomutase 2 (F119L-PMM2) (Homo sapiens; F119L) (protein)
chain: B1 chain with F119L
As for B2, the Michaelis constant (Km) in data set [1] was 11.8 ± 1.0 µM; in data set [2], 15.5 ± 1.6 µM.
